Experimental data as given in article doi:10.1101/2023.06.13.544862 (bioRxiv, 2023).
One block for each binder: values may come before it. Ends that are not written are not given here. Me3 = trimethyl-lysine; Me2 = dimethyl-lysine

Key:
[1] = target: GST-tagged EED, wild type (human, UniProt O75530 1-441); assay: pull-down
[2] = target: JMJD3 JmjC domain labelled for microscale thermophoresis (UniProt O15054 1339-1502, labeled with Protein Labeling kit RED-NHS); assay: MST
JMJD3 JmjC domain labelled for microscale thermophoresis, sequence (O15054 1339-1502): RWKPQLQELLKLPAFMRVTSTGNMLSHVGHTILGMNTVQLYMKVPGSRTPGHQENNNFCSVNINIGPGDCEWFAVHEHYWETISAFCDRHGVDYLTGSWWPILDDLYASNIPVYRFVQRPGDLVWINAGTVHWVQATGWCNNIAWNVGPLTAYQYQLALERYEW

GST-tagged EED, wild type, sequence (O75530 whole entry, the tested form may be a part): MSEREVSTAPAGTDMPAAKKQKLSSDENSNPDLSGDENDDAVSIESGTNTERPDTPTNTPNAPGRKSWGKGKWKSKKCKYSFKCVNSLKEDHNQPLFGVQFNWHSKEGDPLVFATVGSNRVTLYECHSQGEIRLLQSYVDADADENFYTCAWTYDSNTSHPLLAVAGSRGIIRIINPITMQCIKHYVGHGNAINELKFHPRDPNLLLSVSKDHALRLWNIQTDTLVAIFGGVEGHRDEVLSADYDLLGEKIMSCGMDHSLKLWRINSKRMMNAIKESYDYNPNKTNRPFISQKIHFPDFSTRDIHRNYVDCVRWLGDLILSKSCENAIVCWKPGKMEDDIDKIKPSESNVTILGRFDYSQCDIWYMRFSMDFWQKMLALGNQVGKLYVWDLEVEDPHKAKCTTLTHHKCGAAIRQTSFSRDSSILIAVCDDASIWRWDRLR

B1: 6xHis-tagged NOP16 (natural protein, human, UniProt Q9Y3C1 1-178, looked up)
chain: MPKAKGKTRRQKFGYSVNRKRLNRNARRKAAPRIECSHIRHAWDHAKSVRQNLAEMGLAVDPNRAVPLRKRKVKAMEVDIEERPKELVRKPYVLNDLEAEASLPEKKGNTLSRDLIDYVRYMVENHGEDYKAMARDEKNYYQDTPKQIRSKINVYKRFYPAEWQDFLDSLQKRKMEVE
binding result [1]: binds

Binder: NARRK(Me)AAP (peptide, UniProt Q9Y3C1 25-32, looked up, also: biotin) [NOP16 aa 25-32 peptide, mono-methylated K29]
Kd [2]: 347 ± 224 µM

Binder: NARRK(Me2)AAP (peptide, UniProt Q9Y3C1 25-32, looked up, also: biotin) [NOP16 aa 25-32 peptide, di-methylated K29]
Kd [2]: 306 ± 101 µM

Next, values leading:

Kd [2]: 32.1 ± 27.4 µM
Binder: NARRK(Me3)AAP (peptide, UniProt Q9Y3C1 25-32, looked up, also: biotin) [NOP16 aa 25-32 peptide, tri-methylated K29]

Kd [2]: 103 ± 65.2 µM
Binder: NARRKAAP (peptide, UniProt Q9Y3C1 25-32, looked up, also: biotin) [NOP16 aa 25-32 peptide, unmethylated K29]
